In article PMC11377297, “Mechanical disengagement of the cohesin ring” (Nature Structural & Molecular Biology, 2023):

Target: T1, Smc1^Psm1-SNAP subunit of the fission yeast cohesin tetramer (head-tagged variant, TMR-labelled) (fission yeast, UniProt O94383 1-1228, TMR fluorophore on the SNAP-tag)
T1 construct: Psm1 (Smc1), fission yeast cohesin subunit; source: recombinant, purified as part of the cohesin tetramer; not shown: SNAP-tag, C-terminal, kept
T1 sequence (looked up): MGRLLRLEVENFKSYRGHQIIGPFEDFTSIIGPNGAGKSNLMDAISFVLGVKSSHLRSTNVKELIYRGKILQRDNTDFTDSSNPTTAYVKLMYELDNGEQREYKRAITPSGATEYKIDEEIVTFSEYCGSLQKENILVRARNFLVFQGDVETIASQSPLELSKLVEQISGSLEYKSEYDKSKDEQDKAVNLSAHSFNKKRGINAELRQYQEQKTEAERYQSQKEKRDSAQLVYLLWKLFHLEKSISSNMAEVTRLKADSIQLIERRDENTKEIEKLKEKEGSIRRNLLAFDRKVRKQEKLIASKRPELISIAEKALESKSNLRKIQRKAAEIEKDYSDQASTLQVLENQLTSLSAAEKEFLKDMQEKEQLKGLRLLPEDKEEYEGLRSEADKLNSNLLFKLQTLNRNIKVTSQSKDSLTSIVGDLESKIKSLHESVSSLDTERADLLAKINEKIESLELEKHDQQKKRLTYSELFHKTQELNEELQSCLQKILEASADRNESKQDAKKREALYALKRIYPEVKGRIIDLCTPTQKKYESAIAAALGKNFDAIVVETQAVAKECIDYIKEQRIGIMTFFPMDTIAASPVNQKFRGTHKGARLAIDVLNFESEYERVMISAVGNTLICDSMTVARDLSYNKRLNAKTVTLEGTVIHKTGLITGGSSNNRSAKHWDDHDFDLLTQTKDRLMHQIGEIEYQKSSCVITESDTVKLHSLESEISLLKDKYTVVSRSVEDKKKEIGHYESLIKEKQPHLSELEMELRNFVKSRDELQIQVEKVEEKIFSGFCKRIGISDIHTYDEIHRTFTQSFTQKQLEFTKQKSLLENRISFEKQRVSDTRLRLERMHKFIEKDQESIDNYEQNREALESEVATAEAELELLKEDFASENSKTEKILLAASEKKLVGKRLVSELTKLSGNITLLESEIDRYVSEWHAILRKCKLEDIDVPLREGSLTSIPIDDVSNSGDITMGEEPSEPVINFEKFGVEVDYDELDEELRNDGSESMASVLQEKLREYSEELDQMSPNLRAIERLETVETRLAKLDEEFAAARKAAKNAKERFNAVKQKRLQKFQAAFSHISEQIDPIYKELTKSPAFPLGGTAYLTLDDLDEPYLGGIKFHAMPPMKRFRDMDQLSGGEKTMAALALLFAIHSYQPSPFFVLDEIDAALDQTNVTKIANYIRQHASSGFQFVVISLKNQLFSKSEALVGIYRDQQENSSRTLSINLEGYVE
Assay: co-purification of the recombinant complex (SDS-PAGE, Coomassie); purified cohesin complex resolved by SDS-PAGE; purification methods in the Supplementary Information

binding result: binds
B1: Smc3^Psm3-CLIP-biotin subunit of the fission yeast cohesin tetramer (head-tagged variant) (natural protein, UniProt O42649 1-1194, looked up)
chain: MYITKIVIQGFKSYKDYTVIEPLSPHHNVIVGRNGSGKSNFFAAIRFVLSDAYTHLSREERQALLHEGPGATVMSAYVEVTFANADNRFPTGKSEVVLRRTIGLKKDEYSLDKKTVSKTEVINLLESAGFSRSNPYYIVPQGRVTSLTNAKDSERLELLKEVAGTQIYENRRAESNKIMDETIQKSEKIDELLQYIEERLRELEEEKNDLAVYHKKDNERRCLEYAIYSREHDEINSVLDALEQDRIAALERNDDDSGAFIQREERIERIKAEITELNHSLELLRVEKQQNDEDYTNIMKSKVALELQSSQLSRQIEFSKKDESSKLNILSELESKISEKENELSEILPKYNAIVSEADDLNKRIMLLKNQKQSLLDKQSRTSQFTTKKERDEWIRNQLLQINRNINSTKENSDYLKTEYDEMENELKAKLSRKKEIEISLESQGDRMSQLLANITSINERKENLTDKRKSLWREEAKLKSSIENVKDDLSRSEKALGTTMDRNTSNGIRAVKDIAERLKLEGYYGPLCELFKVDNRFKVAVEATAGNSLFHIVVDNDETATQILDVIYKENAGRVTFMPLNKLRPKAVTYPDASDALPLIQYLEFDPKFDAAIKQVFSKTIVCPSIETASQYARSHQLNGITLSGDRSDKKGALTAGYRDYRNSRLDAIKNVKTYQIKFSDLQESLEKCRSEIESFDQKITACLDDLQKAQLSLKQFERDHIPLKDELVTITGETTDLQESMHHKSRMLELVVLELHTLEQQANDLKSELSSEMDELDPKDVEALKSLSGQIENLSHEFDAIIKERAHIEARKTALEYELNTNLYLRRNPLKAEIGSDNRIDESELNSVKRSLLKYENKLQIIKSSSSGLEEQMQRINSEISDKRNELESLEELQHEVATRIEQDAKINERNAAKRSLLLARKKECNEKIKSLGVLPEEAFIKYVSTSSNAIVKKLHKINEALKDYGSVNKKAYEQFNNFTKQRDSLLARREELRRSQESISELTTVLDQRKDEAIERTFKQVAKSFSEIFVKLVPAGRGELVMNRRSELSQSIEQDISMDIDTPSQKSSIDNYTGISIRVSFNSKDDEQLNINQLSGGQKSLCALTLIFAIQRCDPAPFNILDECDANLDAQYRSAIAAMVKEMSKTSQFICTTFRPEMVKVADNFYGVMFNHKVSTVESISKEEAMAFVEG
modifications: biotin on the CLIP-tag
notes: Psm3 (Smc3), fission yeast cohesin subunit; source: recombinant, purified as part of the cohesin tetramer; not shown: CLIP-tag, C-terminal, kept
